{"source": "patent US20120141537A1", "experiment_in_all_cases": "cell-based or functional assay", "key": {"[1]": {"molecular_target": "H-2K^b wild type complexed with Q7 peptide SIINFEQL (SEQ ID NO:2) (mouse) (UniProt P01901)"}, "[2]": {"molecular_target": "H-2K^b wild type complexed with SIINFEKL (SEQ ID NO:1) (mouse; chicken) (UniProt P01901)"}, "[3]": {"molecular_target": "K^bm3 complexed with Q7 peptide (SEQ ID NO:2) (mouse) (UniProt P01901)"}}}
{"substance": "OT-1 T cell receptor (TCR)", "values": [{"measurement": "Day 14 Diabetes in B6-RIP-OVA mice given naive OT-1 spleen cells and peptide-pulsed RMAS cells", "setting": "[1]", "value": "0 of 4 mice"}, {"measurement": "Day 21 Diabetes after day 15 challenge with TMEV-SIINFEKL", "setting": "[1]", "value": "0 of 4 mice"}, {"measurement": "Day 14 Diabetes in B6-RIP-OVA mice given naive OT-1 spleen cells and peptide-pulsed RMAS cells", "setting": "[2]", "value": "0 of 2 mice"}, {"measurement": "Day 21 Diabetes after day 15 challenge with TMEV-SIINFEKL", "setting": "[2]", "value": "2 of 2 mice"}, {"measurement": "Day 14 Diabetes in B6-RIP-OVA mice given naive OT-1 spleen cells and peptide-pulsed RMAS cells", "setting": "[3]", "value": "0 of 4 mice"}, {"measurement": "Day 21 Diabetes after day 15 challenge with TMEV-SIINFEKL", "setting": "[3]", "value": "3 of 4 mice"}, {"measurement": "diabetes (>300 mg/dL blood glucose) after TMEV-L/OVA challenge on day 15 (FIG. 4)", "setting": "[3]", "value": "65 % of mice"}]}
